Starred links: 1 amine or outer side, 2 acyl side, 3 side chain; linkers in the order of their positions; H or OH if unused. Non-standard residues stand in square brackets, D forms with d. Groups on a side chain read outwards from the residue. No end group written: not given here. *: point of attachment. γGlu = O=C(O)[C@H](CCC(=O)[*:2])N[*:1]; Stearoyl = CCCCCCCCCCCCCCCCCC(=O)*; αMeF = C[C@](N)(Cc1ccccc1)C(=O)O; αMeK = C[C@](N)(CCCCN)C(=O)O; αMeS = C[C@](N)(CO)C(=O)O; Aib = CC(C)(N)C(=O)O
T1: glucose-dependent insulinotropic peptide (gastric inhibitory polypeptide) receptor (GIPR) (human, UniProt P48546 22-466)
T1 sequence (looked up): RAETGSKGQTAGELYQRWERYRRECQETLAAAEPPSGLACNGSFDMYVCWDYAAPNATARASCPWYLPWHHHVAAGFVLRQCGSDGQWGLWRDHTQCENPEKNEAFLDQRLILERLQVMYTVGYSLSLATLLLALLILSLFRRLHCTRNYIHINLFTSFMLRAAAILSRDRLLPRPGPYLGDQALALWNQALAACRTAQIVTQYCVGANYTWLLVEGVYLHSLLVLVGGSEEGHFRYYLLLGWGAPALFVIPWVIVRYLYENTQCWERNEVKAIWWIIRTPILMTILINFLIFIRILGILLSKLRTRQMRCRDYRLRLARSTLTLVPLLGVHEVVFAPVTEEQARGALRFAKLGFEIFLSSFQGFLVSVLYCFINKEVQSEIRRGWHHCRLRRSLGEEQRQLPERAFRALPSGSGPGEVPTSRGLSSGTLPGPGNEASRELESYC


Experiments:
Experiment in all cases: cell-based or functional assay
GLP-1 receptor (GLP-1R) = GLP-1 receptor (GLP-1R) (human, UniProt P43220 24-463)
glucagon receptor (GCGR) = glucagon receptor (GCGR) (human, UniProt P47871 26-477)
[1] = biological target: T1, glucose-dependent insulinotropic …

glucagon receptor (GCGR), sequence (P47871 26-477): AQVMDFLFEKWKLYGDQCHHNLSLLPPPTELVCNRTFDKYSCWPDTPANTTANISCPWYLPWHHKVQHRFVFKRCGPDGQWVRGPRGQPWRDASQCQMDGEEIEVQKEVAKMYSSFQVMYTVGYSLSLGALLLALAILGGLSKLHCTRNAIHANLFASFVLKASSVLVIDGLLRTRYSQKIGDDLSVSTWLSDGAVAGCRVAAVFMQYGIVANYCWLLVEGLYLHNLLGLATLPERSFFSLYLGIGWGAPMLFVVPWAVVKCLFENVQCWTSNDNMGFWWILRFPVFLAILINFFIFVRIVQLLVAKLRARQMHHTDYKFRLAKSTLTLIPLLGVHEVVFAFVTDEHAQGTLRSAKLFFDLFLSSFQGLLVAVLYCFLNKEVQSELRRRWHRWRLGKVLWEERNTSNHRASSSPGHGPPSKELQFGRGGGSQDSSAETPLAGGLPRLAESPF

Binder	cAMP Mean pM GLP-1R (GLP-1 receptor (GLP-1R))	cAMP Primary assay EC50 GLP-1R n1 (GLP-1 receptor (GLP-1R))	cAMP Primary assay EC50 GLP-1R n2 (GLP-1 receptor (GLP-1R))	cAMP Primary assay EC50 Gluc-R (glucagon receptor (GCGR))	cAMP Primary assay EC50 Gluc-R (2nd) (glucagon receptor (GCGR))	cAMP Primary assay EC50 GIP-R [1]	cAMP Primary assay EC50 GIP-R (2nd) [1]
H[Aib]EGS[αMeF]TSDV[αMeS]S[αMeF]LEGEAAK([γGlu-γGlu-γGlu-Stearoyl])E[αMeF]IA[αMeF]VV[αMeK]GG-NH2 (N-terminus assumed; SMILES CCCCCCCCCCCCCCCCCC(=O)N[C@@H](CCC(=O)N[C@@H](CCC(=O)N[C@@H](CCC(=O)NCCCC[C@H](NC(=O)[C@H](C)NC(=O)[C@H](C)NC(=O)[C@H](CCC(=O)O)NC(=O)CNC(=O)[C@H](CCC(=O)O)NC(=O)[C@H](CC(C)C)NC(=O)[C@](C)(Cc1ccccc1)NC(=O)[C@H](CO)NC(=O)[C@](C)(CO)NC(=O)[C@@H](NC(=O)[C@H](CC(=O)O)NC(=O)[C@H](CO)NC(=O)[C@@H](NC(=O)[C@](C)(Cc1ccccc1)NC(=O)[C@H](CO)NC(=O)CNC(=O)[C@H](CCC(=O)O)NC(=O)C(C)(C)NC(=O)[C@@H](N)Cc1c[nH]cn1)[C@@H](C)O)C(C)C)C(=O)N[C@@H](CCC(=O)O)C(=O)N[C@@](C)(Cc1ccccc1)C(=O)N[C@H](C(=O)N[C@@H](C)C(=O)N[C@@](C)(Cc1ccccc1)C(=O)N[C@H](C(=O)N[C@H](C(=O)N[C@@](C)(CCCCN)C(=O)NCC(=O)NCC(N)=O)C(C)C)C(C)C)[C@@H](C)CC)C(=O)O)C(=O)O)C(=O)O) [SEQ ID NO 148]	12.1 pM	0.016 nM	0.0087 nM	26 nM	26 nM	26 nM	26 nM
H[Aib]EGS[αMeF]TSDV[αMeS]S[αMeF]LEGEAAK([γGlu-γGlu-Stearoyl])E[αMeF]IA[αMeF]VV[αMeK]GG-NH2 (N-terminus assumed; SMILES CCCCCCCCCCCCCCCCCC(=O)N[C@@H](CCC(=O)N[C@@H](CCC(=O)NCCCC[C@H](NC(=O)[C@H](C)NC(=O)[C@H](C)NC(=O)[C@H](CCC(=O)O)NC(=O)CNC(=O)[C@H](CCC(=O)O)NC(=O)[C@H](CC(C)C)NC(=O)[C@](C)(Cc1ccccc1)NC(=O)[C@H](CO)NC(=O)[C@](C)(CO)NC(=O)[C@@H](NC(=O)[C@H](CC(=O)O)NC(=O)[C@H](CO)NC(=O)[C@@H](NC(=O)[C@](C)(Cc1ccccc1)NC(=O)[C@H](CO)NC(=O)CNC(=O)[C@H](CCC(=O)O)NC(=O)C(C)(C)NC(=O)[C@@H](N)Cc1c[nH]cn1)[C@@H](C)O)C(C)C)C(=O)N[C@@H](CCC(=O)O)C(=O)N[C@@](C)(Cc1ccccc1)C(=O)N[C@H](C(=O)N[C@@H](C)C(=O)N[C@@](C)(Cc1ccccc1)C(=O)N[C@H](C(=O)N[C@H](C(=O)N[C@@](C)(CCCCN)C(=O)NCC(=O)NCC(N)=O)C(C)C)C(C)C)[C@@H](C)CC)C(=O)O)C(=O)O) [SEQ ID NO 147]	23.2 pM	0.032 nM	0.014 nM	27 nM	27 nM	27 nM	27 nM

— patent publication US20200079833A1 (AstraZeneca / MedImmune, published 2020)
